Numbering of substitutions follows the chain as printed. Names may count otherwise.
Tests used:
[1] = target: T1, yeast-displayed hIL-2 (residues 1-133) (human, UniProt P60568); assay: flow cytometry on cells; yeast surface display: hIL-2 or mIL-2 displayed on yeast (Aga2 fusion); serial dilutions of recombinant F5111 antibody, 2 hours at room temperature in PBE (PBS, 0.1% BSA, 1 mM EDTA); detected with anti-human IgG Fc APC; first-order binding model; conditions: one partner purified
T1 construct: human interleukin-2, residues 1-133; a 3C protease site lies between Aga2 and the cytokine; not shown: Aga2 (yeast agglutinin protein), N-terminal, kept

[2] = target: T2, yeast-displayed mIL-2 (residues 1-149) (Mus musculus, UniProt P04351); assay: as above; conditions: one partner purified
T2 construct: mouse interleukin-2, residues 1-149; a 3C protease site lies between Aga2 and the cytokine; also called mouse IL-2; not shown: Aga2 (yeast agglutinin protein), N-terminal, kept

Biotinylated human IL-2 = target: T3, Biotinylated human IL-2 (Homo sapiens, UniProt P60568, biotin on the biotin acceptor peptide (BirA ligase)); assay: BLI; biotinylated hIL-2, hIL-2Rα or hIL-2Rβ immobilised on streptavidin biosensors; serial dilutions of analyte in PBSA (PBS pH 7.2, 0.1% BSA); 300 s association, 600 s dissociation; equilibrium titration, first-order fit; F5111 IC LN25 and LN35 as SEC peak P3, LN15 as majority peak; cytokine/antibody complexes pre-formed at 1:1 molar ratio, 60 minutes at 37°C; conditions: both partners purified
T3 construct: human interleukin-2; limits not restated for this construct (hIL-2 is residues 1-133 in the other constructs); the hexahistidine tag follows the BAP; also called biotinylated hIL-2; hIL-2 (immobilised); source: HEK 293F (gWiz vector), purified (Ni-NTA, SEC), biotinylated with BirA
T3 sequence (P60568 21-153): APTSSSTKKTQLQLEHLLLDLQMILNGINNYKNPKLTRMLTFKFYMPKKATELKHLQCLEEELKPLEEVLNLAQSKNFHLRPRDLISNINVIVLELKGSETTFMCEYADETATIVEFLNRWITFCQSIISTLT

T1 sequence (P60568 21-153): as above
T2 sequence (P04351 21-169): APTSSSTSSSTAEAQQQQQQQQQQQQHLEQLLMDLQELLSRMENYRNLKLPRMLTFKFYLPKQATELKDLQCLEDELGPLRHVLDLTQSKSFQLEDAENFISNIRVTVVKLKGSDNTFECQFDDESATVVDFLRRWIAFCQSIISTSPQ

B1: F5111 antibody (antibody, V domains shown)
VH: QLQLQESGPGLVKPSQTLSLTCTVSGGSISSGGYYWSWIRQHPGKGLEWIGYIYYSGSTYYNPSLKSRVTISVDTSKNQFSLKLSSVTAADTAVYYCARTPTVTGDWFDPWGRGTLVTVSS
VL: NFMLTQPHSVSESPGKTVTISCTRSSGSIASNYVQWYQQRPGSSPTTVIYEDNQRPSGVPDRFSGSIDSSSNSASLTISGLKTEDEADYYCQSYDSSNVVFGGGTKLTVL
notes: human IgG1 constant heavy chain; human lambda constant chain; human IgG1 lambda; anti-hIL-2; also called F5111 Ab; F5111 human immunoglobulin G1 (IgG1) antibody; source: HEK 293F, transient co-transfection of HC and LC plasmids, purified (protein G, SEC); copies: 2 + 2
binding result [1]: binds | binding result [2]: no binding | binding result (Biotinylated human IL-2): binds

B2: F5111.2 Antibody (N297A) (antibody, V domains shown)
VH: B1 VH with Y55K, T59A, N62S
VL: B1 VL with S93T, S97I, N98D, V100Y
notes: as the VH of m21 (F5111.2; human IgG1 constant heavy chain with N297A in the Fc region; 297 is EU numbering); as the VL of m21 (F5111.2); human lambda constant chain; in all studies the F5111.2 antibody includes N297A; the isotype platform is stated for F5111 only; source: HEK 293F, transient co-transfection, purified (protein G, SEC); copies: 2 + 2
binding result (Biotinylated human IL-2): binds

From publication PMC9631798, “Engineered human cytokine/antibody fusion proteins expand regulatory T cells and confer autoimmune disease protection” (Cell reports, 2022)
